# Reference: patent publication US7601489
# Like-named read-outs stand apart in the source and are kept apart here.
# What was measured:
# [1] = biological target: T1, Ty1 reverse transcriptase (wild-type) (Saccharomyces cerevisiae Ty1 retrotransposon) (UniProt Q07163); details: 22 C, 20 mM KCl, pH 7.8
# T1 sequence: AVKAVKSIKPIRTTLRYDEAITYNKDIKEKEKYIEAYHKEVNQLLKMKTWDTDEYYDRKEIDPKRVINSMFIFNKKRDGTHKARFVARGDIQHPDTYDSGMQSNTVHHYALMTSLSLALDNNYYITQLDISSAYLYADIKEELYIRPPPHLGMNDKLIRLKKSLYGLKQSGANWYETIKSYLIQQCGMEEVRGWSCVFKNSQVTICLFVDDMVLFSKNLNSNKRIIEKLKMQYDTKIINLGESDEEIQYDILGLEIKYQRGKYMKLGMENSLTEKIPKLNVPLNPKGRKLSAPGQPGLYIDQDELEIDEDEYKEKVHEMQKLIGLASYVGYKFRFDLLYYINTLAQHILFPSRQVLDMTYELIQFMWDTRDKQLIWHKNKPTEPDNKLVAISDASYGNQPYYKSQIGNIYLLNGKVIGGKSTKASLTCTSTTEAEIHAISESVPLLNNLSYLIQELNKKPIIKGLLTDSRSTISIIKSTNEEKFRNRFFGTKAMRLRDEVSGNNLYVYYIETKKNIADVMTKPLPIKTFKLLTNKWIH
# [2] = biological target: T2, Ty1 reverse transcriptase D211N D211N (Saccharomyces cerevisiae Ty1 retrotransposon) (UniProt Q07163); details: 22 C, 20 mM KCl, pH 7.8
# T2 sequence: T1 sequence
# [3] = biological target: T3, Ty1 VLP-associated reverse transcriptase (Saccharomyces cerevisiae Ty1 retrotransposon) (UniProt Q07163); details: 100% incorporation with Mg2+; 22 C; 50% inhibition at Mn2+:Mg2+ ratio 8e-3
# T3 sequence: T1 sequence
# [4] = biological target: HIV-1 reverse transcriptase (heterodimer) (HIV-1) (UniProt P04585+P04585); details: 100% incorporation with Mg2+; 37 C; 50% inhibition at Mn2+:Mg2+ ratio 7e-4
substance,measurement,setting,value
oligo(dG)12-18/poly(rC) primer-template,activity,"[1]; kcat with Mg2+, K0.5 Mg2+ 0.13 mM",1.61 h⁻¹
same,activity,"[1]; kcat with Mn2+, K0.5 Mn2+ 19.9 mM",0.56 h⁻¹
same,activity,"[2]; kcat with Mg2+, K0.5 Mg2+ 6.3 mM",1.6 h⁻¹
same,activity,"[2]; kcat with Mn2+, K0.5 Mn2+ 0.02 mM",0.57 h⁻¹
same,activity (pmol dGTP/ul VLP per 60 min),[3],5
same,activity (pmol dGTP/ug RT per 60 min),[4],205
